How the values were obtained:
[1] = biological target: gp120/sCD4 complex (HIV-1 YU2) (UniProt P35961); test: SPR (BIACORE 2000), antibody immobilized on CM4 chip, gp120/sCD4 as analyte, 1:1 Langmuir fit
[2] = biological target: gp120ΔV1/V2sdCD4 chimeric protein (HIV-1 YU2) (UniProt P35961); test: SPR (BIACORE 2000), antibody immobilized on CM4 chip, chimeric protein as analyte, 1:1 Langmuir fit
[3] = biological target: gp120ΔV2sdCD4 chimeric protein (HIV-1 YU2) (UniProt P35961); test: as above
[4] = biological target: gp120/sCD4 complex (HIV-1 YU2) (UniProt P35961); test: SPR, antibody immobilized; KD of gp120/sCD4 against KD of gp120ΔV1/V2sdCD4 and gp120ΔV2sdCD4
[5] = biological target: wild type gp120YU2 (HIV-1 YU2) (UniProt P35961); test: ELISA, gp120 captured by D7324, bound antibody as OD 490 nm
[6] = biological target: gp120/sCD4 complex (HIV-1 YU2) (UniProt P35961); test: ELISA, gp120/sCD4 captured by D7324, bound antibody as OD 490 nm

Substance	Kd [1] [nM]	koff [1] [s⁻¹]	kon [1] [M⁻¹ s⁻¹]	Kd [2] [nM]	koff [2] [s⁻¹]	kon [2] [M⁻¹ s⁻¹]	Kd [3] [nM]	koff [3] [s⁻¹]	kon [3] [M⁻¹ s⁻¹]	fold KD against the chimeric proteins [4] [fold]	EC50 (read off the curve) [5] [µg/mL]	EC50 (read off the curve) [6] [µg/mL]
human CD4i monoclonal antibody E51	0.21	0.000169	796000	0.012	0.000516	4.27e+07	0.013	0.000398	3.08e+07			
human CD4i monoclonal antibody 4.8D	1.2	0.000212	177000	0.015	0.000149	9.45e+06	0.038	0.000197	5.2e+06	100		
human MAb F105 (antibody)											0.1	0.3

From US20100303858A1
